Experimental data: IntAct's records for PubMed 15486100

B1: Transcription factor PIF3 (Arabidopsis thaliana (Mouse-ear cress)), O80536 (parent)
chain: MPLFELFRLTKAKLESAQDRNPSPPVDEVVELVWENGQISTQSQSSRSRNIPPPQANSSRAREIGNGSKTTMVDEIPMSVPSLMTGLSQDDDFVPWLNHHPSLDGYCSDFLRDVSSPVTVNEQESDMAVNQTAFPLFQRRKDGNESAPAASSSQYNGFQSHSLYGSDRARDLPSQQTNPDRFTQTQEPLITSNKPSLVNFSHFLRPATFAKTTNNNLHDTKEKSPQSPPNVFQTRVLGAKDSEDKVLNESVASATPKDNQKACLISEDSCRKDQESEKAVVCSSVGSGNSLDGPSESPSLSLKRKHSNIQDIDCHSEDVEEESGDGRKEAGPSRTGLGSKRSRSAEVHNLSERRRRDRINEKMRALQELIPNCNKVDKASMLDEAIEYLKSLQLQVQIMSMASGYYLPPAVMFPPGMGHYPAAAAAMAMGMGMPYAMGLPDLSRGGSSVNHGPQFQVSGMQQQPVAMGIPRVSGGGIFAGSSTIGNGSTRDLSGSKDQTTTNNNSNLKPIKRKQGSSDQFCGSS
B2: Transcription factor PIF5 (Arabidopsis thaliana (Mouse-ear cress)), Q84LH8 (parent)
chain: MEQVFADWNFEDNFHMSTNKRSIRPEDELVELLWRDGQVVLQSQARREPSVQVQTHKQETLRKPNNIFLDNQETVQKPNYAALDDQETVSWIQYPPDDVIDPFESEFSSHFFSSIDHLGGPEKPRTIEETVKHEAQAMAPPKFRSSVITVGPSHCGSNQSTNIHQATTLPVSMSDRSKNVEERLDTSSGGSSGCSYGRNNKETVSGTSVTIDRKRKHVMDADQESVSQSDIGLTSTDDQTMGNKSSQRSGSTRRSRAAEVHNLSERRRRDRINERMKALQELIPHCSRTDKASILDEAIDYLKSLQMQLQVMWMGSGMAAAAAAAASPMMFPGVQSSPYINQMAMQSQMQLSQFPVMNRSAPQNHPGLVCQNPVQLQLQAQNQILSEQLARYMGGIPQMPPAGNQMQTVQQQPADMLGFGSPAGPQSQLSAPATTDSLHMGKIG
B3: Transcription factor PIF4 (Arabidopsis thaliana (Mouse-ear cress)), Q8W2F3-2 (parent)
chain: MEHQGWSFEENYSLSTNRRSIRPQDELVELLWRDGQVVLQSQTHREQTQTQKQDHHEEALRSSTFLEDQETVSWIQYPPDEDPFEPDDFSSHFFSTMDPLQRPTSETVKPKSSPEPPQVMVKPKACPDPPPQVMPPPKFRLTNSSSGIRETEMEQYSVTTVGPSHCGSNPSQNDLDVSMSHDRSKNIEEKLNPNASSSSGGSSGCSFGKDIKEMASGRCITTDRKRKRINHTDESVSLSDAIGNKSNQRSGSNRRSRAAEVHNLSERVLHRFVYIIYNI
B4: Transcription factor PIF6 (Arabidopsis thaliana (Mouse-ear cress)), Q8L5W7 (parent)
chain: MMFLPTDYCCRLSDQEYMELVFENGQILAKGQRSNVSLHNQRTKSIMDLYEAEYNEDFMKSIIHGGGGAITNLGDTQVVPQSHVAAAHETNMLESNKHVDDSETLKASSSKRMMVDYHNRKKIKFIPPDEQSVVADRSFKLGFDTSSVGFTEDSEGSMYLSSSLDDESDDARPQVPARTRKALVKRKRNAEAYNSPERNQRNDINKKMRTLQNLLPNSHKDDNESMLDEAINYMTNLQLQVQMMTMGNRFVTPSMMMPLGPNYSQMGLAMGVGMQMGEQQFLPAHVLGAGLPGINDSADMLRFLNHPGLMPMQNSAPFIPTENCSPQSVPPSCAAFPNQIPNPNSLSNLDGATLHKKSRKTNR

Variants of: B1
Settings: with phyb_arath PHYB

effect of a mutation on the interaction | Variant
decreasing interaction | MPLFELFRLTKAKLESAQDRNPSPPVDEVVALVWENAQISTQSQSSRSRNIPPPQANSSRAREIGNGSKTTMVDEIPMSVPSLMTGLSQDDDFVPWLNHHPSLDGYCSDFLRDVSSPVTVNEQESDMAVNQTAFPLFQRRKDGNESAPAASSSQYNGFQSHSLYGSDRARDLPSQQTNPDRFTQTQEPLITSNKPSLVNFSHFLRPATFAKTTNNNLHDTKEKSPQSPPNVFQTRVLGAKDSEDKVLNESVASATPKDNQKACLISEDSCRKDQESEKAVVCSSVGSGNSLDGPSESPSLSLKRKHSNIQDIDCHSEDVEEESGDGRKEAGPSRTGLGSKRSRSAEVHNLSERRRRDRINEKMRALQELIPNCNKVDKASMLDEAIEYLKSLQLQVQIMSMASGYYLPPAVMFPPGMGHYPAAAAAMAMGMGMPYAMGLPDLSRGGSSVNHGPQFQVSGMQQQPVAMGIPRVSGGGIFAGSSTIGNGSTRDLSGSKDQTTTNNNSNLKPIKRKQGSSDQFCGSS [E31A;G37A]

Variants of: B2
Settings: with phyb_arath PHYB

effect of a mutation on the interaction | Variant
decreasing interaction | MEQVFADWNFEDNFHMSTNKRSIRPEDELVELLWRDAQVVLQSQARREPSVQVQTHKQETLRKPNNIFLDNQETVQKPNYAALDDQETVSWIQYPPDDVIDPFESEFSSHFFSSIDHLGGPEKPRTIEETVKHEAQAMAPPKFRSSVITVGPSHCGSNQSTNIHQATTLPVSMSDRSKNVEERLDTSSGGSSGCSYGRNNKETVSGTSVTIDRKRKHVMDADQESVSQSDIGLTSTDDQTMGNKSSQRSGSTRRSRAAEVHNLSERRRRDRINERMKALQELIPHCSRTDKASILDEAIDYLKSLQMQLQVMWMGSGMAAAAAAAASPMMFPGVQSSPYINQMAMQSQMQLSQFPVMNRSAPQNHPGLVCQNPVQLQLQAQNQILSEQLARYMGGIPQMPPAGNQMQTVQQQPADMLGFGSPAGPQSQLSAPATTDSLHMGKIG [G37A]
decreasing interaction | MEQVFADWNFEDNFHMSTNKRSIRPEDELVALLWRDGQVVLQSQARREPSVQVQTHKQETLRKPNNIFLDNQETVQKPNYAALDDQETVSWIQYPPDDVIDPFESEFSSHFFSSIDHLGGPEKPRTIEETVKHEAQAMAPPKFRSSVITVGPSHCGSNQSTNIHQATTLPVSMSDRSKNVEERLDTSSGGSSGCSYGRNNKETVSGTSVTIDRKRKHVMDADQESVSQSDIGLTSTDDQTMGNKSSQRSGSTRRSRAAEVHNLSERRRRDRINERMKALQELIPHCSRTDKASILDEAIDYLKSLQMQLQVMWMGSGMAAAAAAAASPMMFPGVQSSPYINQMAMQSQMQLSQFPVMNRSAPQNHPGLVCQNPVQLQLQAQNQILSEQLARYMGGIPQMPPAGNQMQTVQQQPADMLGFGSPAGPQSQLSAPATTDSLHMGKIG [E31A]
decreasing interaction | MEQVFADWNFEDNFHMSTNKRSIRPEDELVEALWRDGQVVLQSQARREPSVQVQTHKQETLRKPNNIFLDNQETVQKPNYAALDDQETVSWIQYPPDDVIDPFESEFSSHFFSSIDHLGGPEKPRTIEETVKHEAQAMAPPKFRSSVITVGPSHCGSNQSTNIHQATTLPVSMSDRSKNVEERLDTSSGGSSGCSYGRNNKETVSGTSVTIDRKRKHVMDADQESVSQSDIGLTSTDDQTMGNKSSQRSGSTRRSRAAEVHNLSERRRRDRINERMKALQELIPHCSRTDKASILDEAIDYLKSLQMQLQVMWMGSGMAAAAAAAASPMMFPGVQSSPYINQMAMQSQMQLSQFPVMNRSAPQNHPGLVCQNPVQLQLQAQNQILSEQLARYMGGIPQMPPAGNQMQTVQQQPADMLGFGSPAGPQSQLSAPATTDSLHMGKIG [L32A]
decreasing interaction | MEQVFADWNFEDNFHMSTNKRSIRPEDELVELLWRDGAVVLQSQARREPSVQVQTHKQETLRKPNNIFLDNQETVQKPNYAALDDQETVSWIQYPPDDVIDPFESEFSSHFFSSIDHLGGPEKPRTIEETVKHEAQAMAPPKFRSSVITVGPSHCGSNQSTNIHQATTLPVSMSDRSKNVEERLDTSSGGSSGCSYGRNNKETVSGTSVTIDRKRKHVMDADQESVSQSDIGLTSTDDQTMGNKSSQRSGSTRRSRAAEVHNLSERRRRDRINERMKALQELIPHCSRTDKASILDEAIDYLKSLQMQLQVMWMGSGMAAAAAAAASPMMFPGVQSSPYINQMAMQSQMQLSQFPVMNRSAPQNHPGLVCQNPVQLQLQAQNQILSEQLARYMGGIPQMPPAGNQMQTVQQQPADMLGFGSPAGPQSQLSAPATTDSLHMGKIG [Q38A]

Variants of: B3
Settings: with phyb_arath PHYB

effect of a mutation on the interaction | Variant
decreasing interaction | MEHQGWSFEENYSLSTNRRSIRPQDELVELLWRDAQVVLQSQTHREQTQTQKQDHHEEALRSSTFLEDQETVSWIQYPPDEDPFEPDDFSSHFFSTMDPLQRPTSETVKPKSSPEPPQVMVKPKACPDPPPQVMPPPKFRLTNSSSGIRETEMEQYSVTTVGPSHCGSNPSQNDLDVSMSHDRSKNIEEKLNPNASSSSGGSSGCSFGKDIKEMASGRCITTDRKRKRINHTDESVSLSDAIGNKSNQRSGSNRRSRAAEVHNLSERVLHRFVYIIYNI [G35A]
decreasing interaction | MEHQGWSFEENYSLSTNRRSIRPQDELVALLWRDAQVVLQSQTHREQTQTQKQDHHEEALRSSTFLEDQETVSWIQYPPDEDPFEPDDFSSHFFSTMDPLQRPTSETVKPKSSPEPPQVMVKPKACPDPPPQVMPPPKFRLTNSSSGIRETEMEQYSVTTVGPSHCGSNPSQNDLDVSMSHDRSKNIEEKLNPNASSSSGGSSGCSFGKDIKEMASGRCITTDRKRKRINHTDESVSLSDAIGNKSNQRSGSNRRSRAAEVHNLSERVLHRFVYIIYNI [E29A;G35A]

Variants of: B4
Settings: with phyb_arath PHYB

effect of a mutation on the interaction | Variant
decreasing interaction | MMFLPTDYCCRLSDQEYMALVFENAQILAKGQRSNVSLHNQRTKSIMDLYEAEYNEDFMKSIIHGGGGAITNLGDTQVVPQSHVAAAHETNMLESNKHVDDSETLKASSSKRMMVDYHNRKKIKFIPPDEQSVVADRSFKLGFDTSSVGFTEDSEGSMYLSSSLDDESDDARPQVPARTRKALVKRKRNAEAYNSPERNQRNDINKKMRTLQNLLPNSHKDDNESMLDEAINYMTNLQLQVQMMTMGNRFVTPSMMMPLGPNYSQMGLAMGVGMQMGEQQFLPAHVLGAGLPGINDSADMLRFLNHPGLMPMQNSAPFIPTENCSPQSVPPSCAAFPNQIPNPNSLSNLDGATLHKKSRKTNR [E19A;G25A]
